The target of the test is T1, Flag-tagged TBK1 (TANK-binding kinase 1), human, full length (human, UniProt Q9UHD2 1-729).
T1 construct: entire coding region cloned into the EcoRI and XhoI sites of pSicoR-Flag-C1; also called Flag-TBK1; pSicoR-Flag-TBK1; source: HEK293T, transfected, in lysate (co-IP); immunopurified from HEK293T and eluted with FLAG peptide (GST pull-down)
T1 sequence (looked up): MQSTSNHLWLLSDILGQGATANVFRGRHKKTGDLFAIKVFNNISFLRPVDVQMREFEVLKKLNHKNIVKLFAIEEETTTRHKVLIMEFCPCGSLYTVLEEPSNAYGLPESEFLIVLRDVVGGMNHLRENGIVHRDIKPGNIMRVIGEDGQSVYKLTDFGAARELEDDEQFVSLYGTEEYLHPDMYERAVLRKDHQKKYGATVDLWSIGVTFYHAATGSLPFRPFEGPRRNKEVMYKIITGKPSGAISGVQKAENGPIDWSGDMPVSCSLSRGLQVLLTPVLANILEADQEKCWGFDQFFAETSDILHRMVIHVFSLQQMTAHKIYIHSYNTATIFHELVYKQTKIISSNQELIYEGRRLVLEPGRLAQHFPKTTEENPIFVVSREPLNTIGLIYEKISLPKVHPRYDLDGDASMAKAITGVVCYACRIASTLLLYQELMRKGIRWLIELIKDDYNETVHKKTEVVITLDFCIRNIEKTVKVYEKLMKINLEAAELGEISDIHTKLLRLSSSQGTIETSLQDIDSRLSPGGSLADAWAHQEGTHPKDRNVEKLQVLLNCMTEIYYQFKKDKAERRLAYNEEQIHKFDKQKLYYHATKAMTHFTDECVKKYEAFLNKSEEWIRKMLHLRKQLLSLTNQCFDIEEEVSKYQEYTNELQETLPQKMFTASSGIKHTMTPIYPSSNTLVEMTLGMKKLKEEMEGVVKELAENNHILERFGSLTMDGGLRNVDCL
The test can be described thus: pull-down; GST-SIKE from E. coli on glutathione-sepharose 4B beads incubated 4 h at 4 °C with immunopurified Flag-TBK1 from HEK293T; washed with IP lysis buffer, eluted with 20 mM reduced glutathione; anti-FLAG blot; GST tag as negative control. As to conditions: both partners purified.

B1: GST-SIKE fusion protein, human SIKE (natural protein, UniProt Q9BRV8 1-207, looked up)
chain: MSCTIEKILTDAKTLLERLREHDAAAESLVDQSAALHRRVAAMREAGTALPDQYQEDASDMKDMSKYKPHILLSQENTQIRDLQQENRELWISLEEHQDALELIMSKYRKQMLQLMVAKKAVDAEPVLKAHQSHSAEIESQIDRICEMGEVMRKAVQVDDDQFCKIQEKLAQLELENKELRELLSISSESLQARKENSMDTASQAIK
notes: Suppressor of IKKɛ (SIKE), human; human SIKE gene cloned into pGEX-4T-1; also called pGEX-4T-1-GST-SIKE; source: E. coli Rosetta (DE3), purified on glutathione-sepharose 4B beads
For the molecule B1, the binding result is “binds”.
